Laboratory results published in doi:10.1101/2020.11.04.368696v1.

System: CC/C=C\CCO
Experiment: purified protein
Conditions: 2 mM acetyl-CoA, 50 °C

Work on “CATec3 (CAT3_ECOLIX) (Escherichia coli; Y20F)” yielded a Km of 6.4 ± 2.2 mM and a kcat of 2.3 ± 0.2 s⁻¹.
